Test results as given in paper PMC8564726, “Heterodimerization of H3K9 histone methyltransferases G9a and GLP activates methyl reading and writing capabilities” (The Journal of Biological Chemistry, 2021).
Read-outs that look alike come from different tables or passages of the source. Each block holds one molecule with its values, some of them ahead of it.

How the values were obtained:
[1] = tested on: H3_1–20 K9me1 peptide; test: Fluorescence polarization binding to H3K9me1 peptide
Protocol: (§1) Polarization assays with fluoresceinated H3_1–20 K9me1 or K9me2 peptides, 147 bp 601 DNA template, and core nucleosomes were performed and Kd values estimated as described ([11]) with the following modifications: The reaction buffer was 100 mM Tris pH 8, 100 mM KCl, 1 mM MgCl2, 20 μM ZnSO4, 10 mM BME, 0.1% NP-40. The concentration of peptides and nucleosomes was 150 nM and 200 nM for DNA. Polarization measurements were conducted on a Biotek Cytation 5 (peptide and nucleosome) or Molecular Devices Spectramax (DNA) plate reader with low-volume plates (Corning) in either 10 μl (peptide, nucleosome) or 40 μl (DNA) total volume.

[2] = tested on: H3_1–20 K9me2 peptide; test: Fluorescence polarization binding to H3K9me2 peptide
Protocol: as §1

[3] = tested on: unmethylated (H3K9me0) mononucleosomes; test: Fluorescence polarization binding to unmethylated mononucleosome
Excerpt: (§2) Histone proteins and nucleosomes were purified as described ([11], [26]) with modifications (see Supporting methods). For fluorescence polarization, nucleosomes were reconstituted with a 5ʹ fluoresceinated DNA template. H3K9 dimethylation was installed via Methyl-Lysine Analog (MLA) technology as described ([10], [26]). K9 MLA-monomethylated H3 was purchased from Active Motif. H3K27A was introduced by site-directed mutagenesis and purified as described ([26]).
as §1

[4] = tested on: H3K9me1 monomethylated mononucleosomes; test: Fluorescence polarization binding to H3K9me1 mononucleosome
Excerpt: as §2, §1

[5] = tested on: H3_1–20 peptide; test: H3 tail peptide methylation kinetics (multiple turnover); type: biochemical; conditions: Michaelis–Menten, 9 μM 3H-SAM + 1000 μM cold SAM, 0.4 to 0.8 μM enzyme, pH 8, duplicates, 95% CI: G9a-G9a 24.6-34.6, GLP-GLP 9.5-15.5, G9a-GLP 26.0-34.5, G9aS-GLP 20.5-28.3, listed as GLP
Protocol: (§3) Substrate peptides or nucleosomes were mixed in a solution containing 9 μM tritiated S-Adenosyl Methionine (SAM, PerkinElmer) cofactor, and reactions were initiated upon addition of 0.4 to 0.8 μM enzyme. Peptide reactions were supplemented with 1000 μM cold SAM to fully saturate the SAM-binding pocket (Fig. S3). Due to signal limitations, nucleosome reactions were not supplemented with SAM (see Supporting methods). Reactions were run in 100 mM Tris pH 8, 100 mM KCl, 1 mM MgCl2, 20 μM ZnSO4, 10 mM BME and quenched with laemmli buffer. Peptide reactions were performed as described ([11]). Nucleosome methylation reactions were read out via autoradiography as described ([11]), except that proteins were separated on an 18% SDS PAGE gel.
All methylation reactions (except Fig. S4A) were performed under Multiple Turnover conditions ([25]). To determine initial rates, methylation time courses were traced at various concentrations of H3K9-containing substrate while keeping the concentration of SAM and enzyme constant. Plots of initial rate versus concentration H3K9 substrate measured in duplicate or triplicate were fit to V = Vmax∗[S]/(KM + [S]) using Prism software to extract KM and kcat (or kobs) values as well as the 95% confidence interval bounds of the fit. See Supporting methods for special considerations for nucleosome kinetics.

[6] = tested on: mononucleosome (core nucleosome); test: Mononucleosome methylation kinetics (multiple turnover); type: biochemical; conditions: initial rates, 10 μM histone tails (Fig. 3F)
Excerpt: as §2
Substrate peptides or nucleosomes were mixed in a solution containing 9 μM tritiated S-Adenosyl Methionine (SAM, PerkinElmer) cofactor, and reactions were initiated upon addition of 0.4 to 0.8 μM enzyme. Peptide reactions were supplemented with 1000 μM cold SAM to fully saturate the SAM-binding pocket (Fig. S3). […] Nucleosome methylation reactions were read out via autoradiography as described ([11]), except that proteins were separated on an 18% SDS PAGE gel. […]
(§4) Detailed E. coli protein expression, purification, and tag cleavage methods Cells co- expressing His and MBP constructs were lysed on ice via sonication in lysis buffer (100mM Tris pH 8, 300mM NaCl, 10% glycerol (v/v), 0.1% Tween-20, with freshly added 1mM β-mercaptoethanol (BME), 1mM PMSF, 5mM Benzamidine, 200µM Leupeptin, Aproptinin, Pepstatin, Phenantroline). […] All protein constructs were quantified using SDS page with BSA standards and Sypro Red stain. […]

[7] = tested on: 10-nucleosome arrays; test: Nucleosome array methylation, initial rate; type: biochemical; conditions: 2 μM histone tails, nonsaturating (Fig. 3H)
Protocol: as §3
All methylation reactions (except Fig. S4A) were performed under Multiple Turnover conditions ([25]). […]
as §4

- affinity for H3K9me1 peptide, in words [1]: can recognize H3K9me1
- affinity for H3K9me1 peptide, in words ([1]; listed as GLP): binds H3K9me1 peptides tightly
- reduced binding to me2 peptides (fold) ([2]; GLP ANK-SET homodimer, reduction as worded (reference me1 binding or ANK alone not stated)): 12.5 times
- binding to nucleosomes, in words [3]: binds poorly to nucleosomes
- Kd ([3]; 147 bp 601 DNA 5ʹ fluorescein-labeled nucleosomes, 150 nM, pH 8, 100 mM KCl, 0.1% NP-40, 95% CI (μM): G9a 6.4-8.6, G9a-GLP 5.6-7.6, GLP-GLP 17.4-41.5, read-out: Kd, unmethylated (me0) mononucleosome): 26.3 µM
- binding to H3K9me1 nucleosomes, in words [4]: binds relatively tightly to H3K9me1
B1: GLP-GLP: homodimer of GLP truncated to the C-terminal ANK and SET domains (ANK-SET) (protein)
chain: MAAADAEQAVLAKQETKQDCCMKTELLREDTPMAADEGSTEKQEGETPMAADGETNGSCEKSGDPSHLNAPKHTQENTRASPQEGTNRVSRVAENGVSERDTEVGKQNHVTADDFMQTSVIGSNGYFLNKPALQGQPLRTPNILTSSLPGHAAKTLPGGASKCRTLSALPQTPTTAPTVPGEGSADTEDRKPTASGTDVRVHRARKTMPKSILGLHAASKDHREVQDHKEPKEDINRNISECGRQQLLPTFPALHQSLPQNQCYMATTKSQTACLPFVLAAAVSRKKKRRMGTYSLVPKKKTKVLKQRTVIEMFKSITHSTVGAKGEKALDDSALHVNGESLEMDSEDEDSDELEDDEDHGAEQAAAFPTEDSRTSKESMSETDRAAKMDGDSEEEQESPDTGEDEDGGDESDLSSESSIKKKFLKRRGKTDSPWIKPARKRRRRSRKKPSSMLGSEACKSSPGSMEQAALGDSAGYMEVSLDSLDLRVRGILSSQTENEGLASGPDVLGTDGLQEVPLCSCRMETPKSREISTLANNQCMATESVDHELGRCTNSVVKYELMRPSNKAPLLVLCEDHRGRMVKHQCCPGCGYFCTAGNFMECQPESSISHRFHKDCASRVNNASYCPHCGEEASKAKEVTIAKADTTSTVTLAPGQEKSLAAEGRADTTTGSIAGAPEDERSQSTAPQAPECFDPAGPAGLVRPTSGLSQGPGKETLESALIALDSEKPKKLRFHPKQLYFSARQGELQKVLLMLVDGIDPNFKMEHQSKRSPLHAAAEAGHVDICHMLVQAGANIDTCSEDQRTPLMEAAENNHLDAVKYLIKAGAQVDPKDAEGSTCLHLAAKKGHYDVVQYLLSNGQMDVNCQDDGGWTPMIWATEYKHVELVKLLLSKGSDINIRDNEENICLHWAAFSGCVDIAEILLAAKCDLHAVNIHGDSPLHIAARENRYDCVVLFLSRDSDVTLKNKEGETPLQCASLSSQVWSALQMSKALRDSAPDKPVAVEKTVSRDIARGYERIPIPCVNAVDSELCPTNYKYVSQNCVTSPMNIDRNITHLQYCVCVDDCSSSTCMCGQLSMRCWYDKDGRLLPEFNMAEPPLIFECNHACSCWRNCRNRVVQNGLRARLQLYRTQDMGWGVRSLQDIPLGTFVCEYVGELISDSEADVREEDSYLFDLDNKDGEVYCIDARFYGNVSRFINHHCEPNLVPVRVFMSHQDLRFPRIAFFSTRLIQAGEQLGFDYGERFWDVKGKLFSCRCGSSKCRHSSAALAQRQASAAQEPQENGLPDTSSAAAADPL
- kcat, H3_1–20 peptide [5]: ~14 min⁻¹
- activity on mononucleosomes near saturation, in words [6]: slowest of the three enzyme constructs
- initial rate on nucleosome arrays, in words [7]: slowest

B2: full-length G9a: E. coli expressed MBP:FL-G9a (protein)
chain: MRGLPRGRGLMRARGRGRAAPTGGRGRGRGGAHRGRGRPRSLLSLPRAQASWAPQLPAGLTGPPVPCLPSQGEAPAEMGALLLEKEPRGAAERVHSSLGDTPQSEETLPKANPDSLEPAGPSSPASVTVTVGDEGADTPVGAASLIGDEPESLEGDGGRIVLGHATKSFPSSPSKGGACPSRAKMSMTGAGKSPPSVQSLAMRLLSMPGAQGAATAGPEPSPATTAAQEGQPKVHRARKTMSKPSNGQPPIPEKRPPEVQHFRMSDDMHLGKVTSDVAKRRKLNSGSLSEDLGSAGGSGDIILEKGEPRPLEEWETVVGDDFSLYYDAYSVDERVDSDSKSEVEALAEQLSEEEEEEEEEEEEEEEEEEEEEEEEEDEESGNQSDRSGSSGRRKAKKKWRKDSPWVKPSRKRRKREPPRAKEPRGVNGVGSSGPSEYMEVPLGSLELPSEGTLSPNHAGVSNDTSSLETERGFEELPLCSCRMEAPKIDRISERAGHKCMATESVDGELLGCNAAILKRETMRPSSRVALMVLCEAHRARMVKHHCCPGCGYFCTAGTFLECHPDFRVAHRFHKACVSQLNGMVFCPHCGEDASEAQEVTIPRGDGGTPPIGTAAPALPPLAHDAPGRADTSQPSARMRGHGEPRRPPCDPLADTIDSSGPSLTLPNGGCLSAVGLPPGPGREALEKALVIQESERRKKLRFHPRQLYLSVKQGELQKVILMLLDNLDPNFQSDQQSKRTPLHAAAQKGSVEICHVLLQAGANINAVDKQQRTPLMEAVVNNHLEVARYMVQLGGCVYSKEEDGSTCLHHAAKIGNLEMVSLLLSTGQVDVNAQDSGGWTPIIWAAEHKHIDVIRMLLTRGADVTLTDNEENICLHWASFTGSAAIAEVLLNAQCDLHAVNYHGDTPLHIAARESYHDCVLLFLSRGANPELRNKEGDTAWDLTPERSDVWFALQLNRKLRLGVGNRAVRTEKIICRDVARGYENVPIPCVNGVDGEPCPEDYKYISENCETSTMNIDRNITHLQHCTCVDDCSSSNCLCGQLSIRCWYDKDGRLLQEFNKIEPPLIFECNQACSCWRSCKNRVVQSGIKVRLQLYRTAKMGWGVRALQTIPQGTFICEYVGELISDAEADVREDDSYLFDLDNKDGEVYCIDARYYGNISRFINHLCDPNIIPVRVFMLHQDLRFPRIAFFSSRDIRTGEELGFDYGDRFWDIKSKYFTCQCGSEKCKHSAEAIALEQSRLARLDPHPELLPDLSSLPPINT
- affinity for H3K9me1 peptide, in words [1]: no discernable affinity for me1 or me2 peptides
- affinity for H3K9me2 peptide, in words [2]: no discernable affinity for me1 or me2 peptides
